Publication PMC9482650, “Quantitative fragmentomics allow affinity mapping of interactomes” (Nature Communications, 2022)

T1: APBA1_2, Q02410
T1 sequence (Q02410 742-832, limits assumed, looked up): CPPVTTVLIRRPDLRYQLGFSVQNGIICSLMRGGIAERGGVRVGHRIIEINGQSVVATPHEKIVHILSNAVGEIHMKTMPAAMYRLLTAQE

T2: APBA2_2, Q99767
T2 sequence (Q99767 654-744, limits assumed, looked up): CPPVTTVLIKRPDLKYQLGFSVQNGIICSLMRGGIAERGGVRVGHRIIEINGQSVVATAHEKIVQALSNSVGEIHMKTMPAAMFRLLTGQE

T3: RADIL, Q96JH8
T3 sequence (Q96JH8 971-1071, limits assumed, looked up): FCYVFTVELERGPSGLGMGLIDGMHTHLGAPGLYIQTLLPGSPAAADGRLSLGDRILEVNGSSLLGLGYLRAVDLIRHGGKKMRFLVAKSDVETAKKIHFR

T4: TIAM2, Q8IVF5
T4 sequence (Q8IVF5 885-986, limits assumed, looked up): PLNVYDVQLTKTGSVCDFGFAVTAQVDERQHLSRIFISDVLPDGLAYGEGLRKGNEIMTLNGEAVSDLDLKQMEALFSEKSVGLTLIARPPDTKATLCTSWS

T5: DLG3_2, Q92796
T5 sequence (Q92796 221-321, limits assumed, looked up): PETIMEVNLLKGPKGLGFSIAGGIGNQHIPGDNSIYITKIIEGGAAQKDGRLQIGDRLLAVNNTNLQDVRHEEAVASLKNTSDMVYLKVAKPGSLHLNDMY

T6: APBA2_1, Q99767
T6 sequence (Q99767 563-664, limits assumed, looked up): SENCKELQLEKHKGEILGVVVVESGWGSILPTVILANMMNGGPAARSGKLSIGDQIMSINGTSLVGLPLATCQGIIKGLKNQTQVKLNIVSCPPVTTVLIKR

T7: FRMPD1, Q5SYB0
T7 sequence (Q5SYB0 52-145, limits assumed, looked up): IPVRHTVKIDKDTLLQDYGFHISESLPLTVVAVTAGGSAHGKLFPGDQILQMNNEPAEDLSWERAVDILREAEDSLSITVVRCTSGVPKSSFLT

T8: MPP2, Q14168
T8 sequence (Q14168 180-250, limits assumed, looked up): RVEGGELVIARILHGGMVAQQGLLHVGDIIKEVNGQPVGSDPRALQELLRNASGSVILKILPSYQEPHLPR

T9: GRIP1_5, Q9Y3R0
T9 sequence (Q9Y3R0 568-668, limits assumed, looked up): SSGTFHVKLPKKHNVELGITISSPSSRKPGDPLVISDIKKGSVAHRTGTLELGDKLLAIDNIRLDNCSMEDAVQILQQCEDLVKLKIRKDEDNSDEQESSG

T10: LRRC7, Q96NW7
T10 sequence (Q96NW7 1440-1537, limits assumed, looked up): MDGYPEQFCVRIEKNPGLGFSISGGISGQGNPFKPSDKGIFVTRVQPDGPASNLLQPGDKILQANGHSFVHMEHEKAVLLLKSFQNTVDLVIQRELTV

T11: NHERF3_4, Q5T2W1
T11 sequence (Q5T2W1 373-468, limits assumed, looked up): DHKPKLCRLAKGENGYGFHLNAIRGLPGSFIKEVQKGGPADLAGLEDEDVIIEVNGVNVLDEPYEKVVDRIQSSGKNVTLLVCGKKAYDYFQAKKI

T12: SIPA1L2, Q9P2F8
T12 sequence (Q9P2F8 945-1036, limits assumed, looked up): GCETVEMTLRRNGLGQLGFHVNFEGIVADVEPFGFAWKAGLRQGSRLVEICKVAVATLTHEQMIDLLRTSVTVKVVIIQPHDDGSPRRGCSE

T13: LNX2_2, Q8N448
T13 sequence (Q8N448 334-432, limits assumed, looked up): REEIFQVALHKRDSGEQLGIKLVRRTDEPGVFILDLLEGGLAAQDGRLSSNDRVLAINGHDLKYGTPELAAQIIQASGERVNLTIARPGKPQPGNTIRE


Assays:
Test in all cases: holdup assay
Design in all cases: key: below the threshold = too weak to quantify, mostly under pKd 3.1 to 4
Details in all cases: plain residues with an end cap or a label only (N-terminal biotin on a linker: ado-ado)
Inadl_6, Q8NI35 = target: Inadl_6, Q8NI35
APBA1_2, Q02410 = target: T1, APBA1_2, Q02410
SCRIB_3, Q14160 = target: SCRIB_3, Q14160
FRMPD3, Q5JV73 = target: FRMPD3, Q5JV73
APBA2_2, Q99767 = target: T2, APBA2_2, Q99767
MAGI2_5, Q86UL8 = target: MAGI2_5, Q86UL8
RADIL, Q96JH8 = target: T3, RADIL, Q96JH8
TIAM2, Q8IVF5 = target: T4, TIAM2, Q8IVF5
MAGI2_4, Q86UL8 = target: MAGI2_4, Q86UL8
DLG3_2, Q92796 = target: T5, DLG3_2, Q92796
APBA2_1, Q99767 = target: T6, APBA2_1, Q99767
FRMPD1, Q5SYB0 = target: T7, FRMPD1, Q5SYB0
PDLIM1, O00151 = target: PDLIM1, O00151
MPP2, Q14168 = target: T8, MPP2, Q14168
DLG4_1, P78352 = target: DLG4_1, P78352
TJP1_2, Q07157 = target: TJP1_2, Q07157
GRIP2_5, Q9C0E4 = target: GRIP2_5, Q9C0E4
GRIP1_5, Q9Y3R0 = target: T9, GRIP1_5, Q9Y3R0
NOS1, P29475 = target: NOS1, P29475
LNX1_2, Q8TBB1 = target: LNX1_2, Q8TBB1
LRRC7, Q96NW7 = target: T10, LRRC7, Q96NW7
MAST2, Q6P0Q8 = target: MAST2, Q6P0Q8
NHERF3_4, Q5T2W1 = target: T11, NHERF3_4, Q5T2W1
SIPA1L2, Q9P2F8 = target: T12, SIPA1L2, Q9P2F8
LNX2_2, Q8N448 = target: T13, LNX2_2, Q8N448

Sequence of GRIP2_5, Q9C0E4 (Q9C0E4 544-642): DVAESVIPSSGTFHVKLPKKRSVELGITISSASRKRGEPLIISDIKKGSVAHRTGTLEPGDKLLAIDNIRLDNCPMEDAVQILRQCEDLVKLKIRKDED
Sequence of LNX1_2, Q8TBB1 (Q8TBB1 371-470): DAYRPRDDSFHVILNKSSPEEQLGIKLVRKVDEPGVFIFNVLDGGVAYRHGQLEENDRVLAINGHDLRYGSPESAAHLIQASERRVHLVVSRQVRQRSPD
Sequence of MAGI2_5, Q86UL8 (Q86UL8 915-1017): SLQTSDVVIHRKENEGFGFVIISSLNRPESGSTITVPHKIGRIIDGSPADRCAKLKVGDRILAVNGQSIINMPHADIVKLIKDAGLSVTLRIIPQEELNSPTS
Sequence of PDLIM1, O00151 (O00151 1-87): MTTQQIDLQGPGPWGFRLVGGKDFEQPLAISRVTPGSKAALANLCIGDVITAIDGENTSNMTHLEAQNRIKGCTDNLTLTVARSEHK
Sequence of NOS1, P29475 (P29475 9-101): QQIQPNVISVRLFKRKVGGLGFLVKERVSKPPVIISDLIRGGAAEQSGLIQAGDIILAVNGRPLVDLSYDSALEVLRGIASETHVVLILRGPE
Sequence of SCRIB_3, Q14160 (Q14160 999-1103): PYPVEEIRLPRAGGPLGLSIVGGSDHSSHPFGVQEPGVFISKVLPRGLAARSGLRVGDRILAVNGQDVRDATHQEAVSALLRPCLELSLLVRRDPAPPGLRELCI
Sequence of Inadl_6, Q8NI35 (Q8NI35 1058-1167): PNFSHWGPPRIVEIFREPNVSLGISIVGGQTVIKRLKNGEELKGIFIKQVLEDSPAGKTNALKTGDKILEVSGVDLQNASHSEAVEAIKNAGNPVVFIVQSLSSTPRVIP
Sequence of MAGI2_4, Q86UL8 (Q86UL8 772-865): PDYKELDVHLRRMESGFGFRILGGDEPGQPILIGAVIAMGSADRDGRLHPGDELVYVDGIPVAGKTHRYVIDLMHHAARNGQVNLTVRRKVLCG
Sequence of TJP1_2, Q07157 (Q07157 181-274): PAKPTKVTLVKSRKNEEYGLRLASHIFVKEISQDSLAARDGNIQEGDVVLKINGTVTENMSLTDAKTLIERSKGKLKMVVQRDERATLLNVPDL
Sequence of MAST2, Q6P0Q8 (Q6P0Q8 1099-1202): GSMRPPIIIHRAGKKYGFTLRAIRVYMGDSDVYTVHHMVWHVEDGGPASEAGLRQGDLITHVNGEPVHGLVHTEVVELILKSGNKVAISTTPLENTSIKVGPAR
Sequence of DLG4_1, P78352 (P78352 62-152): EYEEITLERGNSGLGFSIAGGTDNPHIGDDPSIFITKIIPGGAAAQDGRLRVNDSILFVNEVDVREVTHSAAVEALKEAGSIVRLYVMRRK
Sequence of FRMPD3, Q5JV73 (Q5JV73 12-100): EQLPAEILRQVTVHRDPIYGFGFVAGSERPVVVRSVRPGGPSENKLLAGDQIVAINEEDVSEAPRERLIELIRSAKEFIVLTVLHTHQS

pKd (Inadl_6, Q8NI35)	pKd (APBA1_2, Q02410)	pKd (SCRIB_3, Q14160)	pKd (FRMPD3, Q5JV73)	pKd (APBA2_2, Q99767)	pKd (MAGI2_5, Q86UL8)	pKd (RADIL, Q96JH8)	pKd (TIAM2, Q8IVF5)	pKd (MAGI2_4, Q86UL8)	pKd (DLG3_2, Q92796)	pKd (APBA2_1, Q99767)	pKd (FRMPD1, Q5SYB0)	pKd (PDLIM1, O00151)	pKd (MPP2, Q14168)	pKd (DLG4_1, P78352)	pKd (TJP1_2, Q07157)	pKd (GRIP2_5, Q9C0E4)	pKd (GRIP1_5, Q9Y3R0)	pKd (NOS1, P29475)	pKd (LNX1_2, Q8TBB1)	Binder	further results
below the threshold	below the threshold	4.11	below the threshold	below the threshold	below the threshold	3.69	3.95	below the threshold	4.02	below the threshold	below the threshold	below the threshold	3.57	below the threshold	3.56	below the threshold	below the threshold	below the threshold	below the threshold	EDGESWEYQI [TRPV6, Q9H1D0]	pKd (LRRC7, Q96NW7): below the threshold; pKd (MAST2, Q6P0Q8): 4.78; pKd (NHERF3_4, Q5T2W1): below the threshold; pKd (SIPA1L2, Q9P2F8): below the threshold; pKd (LNX2_2, Q8N448): below the threshold
below the threshold	3.52	3.51	below the threshold	below the threshold	3.64	4.14	3.89	3.49	4.88	below the threshold	below the threshold	below the threshold	below the threshold	4.59	below the threshold	below the threshold	below the threshold	3.91	3.58	MQHQRTHTRV [ZSCAN30, Q86W11]	pKd (LRRC7, Q96NW7): below the threshold; pKd (MAST2, Q6P0Q8): 5.21; pKd (NHERF3_4, Q5T2W1): 3.51; pKd (SIPA1L2, Q9P2F8): below the threshold; pKd (LNX2_2, Q8N448): 4.47
4	below the threshold	3.87	below the threshold	below the threshold	5.47	4.3	below the threshold	4.45	4.81	below the threshold	below the threshold	below the threshold	below the threshold	4.65	below the threshold	below the threshold	below the threshold	3.92	below the threshold	NIAESLESLV [PTPRZ1, P23471]	pKd (LRRC7, Q96NW7): 3.76; pKd (MAST2, Q6P0Q8): 4.79; pKd (NHERF3_4, Q5T2W1): below the threshold; pKd (SIPA1L2, Q9P2F8): below the threshold; pKd (LNX2_2, Q8N448): 4.05
